Results published in the supplement of paper PMC12855868.

B1: library; numbered along this chain (parent)
chain: MAAAGGARLLRAASAVLGGPAGRWLHHAGSRAGSSGLLRNRGPGGSAEASRSLSVSARARSSSEDKITVHFINRDGETLTTKGKVGDSLLDVVVENNLDIDGFGACEGTLACSTCHLIFEDHIYEKLDAITDEENDMLDLAYGLTDRSRLGCQICLTKSMDNMTVRVPETVADARQSIDVGKTS

Variants of: B1
Experiment: scaled log2 fold change in cell abundance, elesclomol vs control (0 = silent mean, 1 = nonsense mean) (scaled log2 ratio); higher = higher viability under elesclomol (loss of FDX1 cuproptosis function)
Settings: glucose 10 mM
[1] = with ABC1 FDX1 KO, elesclomol 5 nM, 14 days
[2] = with HEK293T FDX1 KO, elesclomol 40 nM, 11 days
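Also: variant abundance is its share of total variant reads in each endpoint sample, from next-generation sequencing of the integrated ORF PCR-amplified out of genomic DNA.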

Variant | scaled log2 fold change [1] | scaled log2 fold change [2]
MAAAGGARLLRAASAVLGGPAGRWLHHAGSRAGSSGLLRNRGPGGSAEASRSLSVSARARSSSEDKITVHFINRDGETLTTKGKVGDSLLDVVVENNLVIDGFGACEGTLACSTCHLIFEDHIYEKLDAITDEENDMLDLAYGLTDRSRLGCQICLTKSMDNMTVRVPETVADARQSIDVGKTS [D99V] | 0.0908 | -1.19
MAAAGGARLLRAASAVLGGPAGRWLHHAGSRAGSSGLLRNRGPGGSAEASRSLSVSARARSSSEDKITVHFINRDGETLTTKGKVGDSLLDVVVENNLKIDGFGACEGTLACSTCHLIFEDHIYEKLDAITDEENDMLDLAYGLTDRSRLGCQICLTKSMDNMTVRVPETVADARQSIDVGKTS [D99K] | 0.114 | -0.24
MAAAGGARLLRAASAVLGGPAGRWLHHAGSRAGSSGLLRNRGPGGSAEASRSLSVSARARSSSEDKITVHFINRDGETLTTKGKVGDSLLDVVVENNLFIDGFGACEGTLACSTCHLIFEDHIYEKLDAITDEENDMLDLAYGLTDRSRLGCQICLTKSMDNMTVRVPETVADARQSIDVGKTS [D99F] | -0.0227 | 0.0629
MAAAGGARLLRAASAVLGGPAGRWLHHAGSRAGSSGLLRNRGPGGSAEASRSLSVSARARSSSEDKITVHFINRDGETLTTKGKVGDSLLDVVVENNLHIDGFGACEGTLACSTCHLIFEDHIYEKLDAITDEENDMLDLAYGLTDRSRLGCQICLTKSMDNMTVRVPETVADARQSIDVGKTS [D99H] | -0.403 | -0.137
MAAAGGARLLRAASAVLGGPAGRWLHHAGSRAGSSGLLRNRGPGGSAEASRSLSVSARARSSSEDKITVHFINRDGETLTTKGKVGDSLLDVVVENNLPIDGFGACEGTLACSTCHLIFEDHIYEKLDAITDEENDMLDLAYGLTDRSRLGCQICLTKSMDNMTVRVPETVADARQSIDVGKTS [D99P] | 0.167 | -0.37
MAAAGGARLLRAASAVLGGPAGRWLHHAGSRAGSSGLLRNRGPGGSAEASRSLSVSARARSSSEDKITVHFINRDGETLTTKGKVGDSLLDVVVENNLEIDGFGACEGTLACSTCHLIFEDHIYEKLDAITDEENDMLDLAYGLTDRSRLGCQICLTKSMDNMTVRVPETVADARQSIDVGKTS [D99E] | 0.144 | 0.199
MAAAGGARLLRAASAVLGGPAGRWLHHAGSRAGSSGLLRNRGPGGSAEASRSLSVSARARSSSEDKITVHFINRDGETLTTKGKVGDSLLDVVVENNLRIDGFGACEGTLACSTCHLIFEDHIYEKLDAITDEENDMLDLAYGLTDRSRLGCQICLTKSMDNMTVRVPETVADARQSIDVGKTS [D99R] | -0.084 | 0.945
MAAAGGARLLRAASAVLGGPAGRWLHHAGSRAGSSGLLRNRGPGGSAEASRSLSVSARARSSSEDKITVHFINRDGETLTTKGKVGDSLLDVVVENNLQIDGFGACEGTLACSTCHLIFEDHIYEKLDAITDEENDMLDLAYGLTDRSRLGCQICLTKSMDNMTVRVPETVADARQSIDVGKTS [D99Q] | 0.0501 | -1.25
MAAAGGARLLRAASAVLGGPAGRWLHHAGSRAGSSGLLRNRGPGGSAEASRSLSVSARARSSSEDKITVHFINRDGETLTTKGKVGDSLLDVVVENNLCIDGFGACEGTLACSTCHLIFEDHIYEKLDAITDEENDMLDLAYGLTDRSRLGCQICLTKSMDNMTVRVPETVADARQSIDVGKTS [D99C] | 0.108 | 0.138
MAAAGGARLLRAASAVLGGPAGRWLHHAGSRAGSSGLLRNRGPGGSAEASRSLSVSARARSSSEDKITVHFINRDGETLTTKGKVGDSLLDVVVENNLTIDGFGACEGTLACSTCHLIFEDHIYEKLDAITDEENDMLDLAYGLTDRSRLGCQICLTKSMDNMTVRVPETVADARQSIDVGKTS [D99T] | 0.182 | -0.092
MAAAGGARLLRAASAVLGGPAGRWLHHAGSRAGSSGLLRNRGPGGSAEASRSLSVSARARSSSEDKITVHFINRDGETLTTKGKVGDSLLDVVVENNLNIDGFGACEGTLACSTCHLIFEDHIYEKLDAITDEENDMLDLAYGLTDRSRLGCQICLTKSMDNMTVRVPETVADARQSIDVGKTS [D99N] | -0.0926 | -0.216
MAAAGGARLLRAASAVLGGPAGRWLHHAGSRAGSSGLLRNRGPGGSAEASRSLSVSARARSSSEDKITVHFINRDGETLTTKGKVGDSLLDVVVENNLLIDGFGACEGTLACSTCHLIFEDHIYEKLDAITDEENDMLDLAYGLTDRSRLGCQICLTKSMDNMTVRVPETVADARQSIDVGKTS [D99L] | -0.286 | -0.152
MAAAGGARLLRAASAVLGGPAGRWLHHAGSRAGSSGLLRNRGPGGSAEASRSLSVSARARSSSEDKITVHFINRDGETLTTKGKVGDSLLDVVVENNLMIDGFGACEGTLACSTCHLIFEDHIYEKLDAITDEENDMLDLAYGLTDRSRLGCQICLTKSMDNMTVRVPETVADARQSIDVGKTS [D99M] | -0.0783 | 0.944
MAAAGGARLLRAASAVLGGPAGRWLHHAGSRAGSSGLLRNRGPGGSAEASRSLSVSARARSSSEDKITVHFINRDGETLTTKGKVGDSLLDVVVENNLSIDGFGACEGTLACSTCHLIFEDHIYEKLDAITDEENDMLDLAYGLTDRSRLGCQICLTKSMDNMTVRVPETVADARQSIDVGKTS [D99S] | -0.273 | -0.316
MAAAGGARLLRAASAVLGGPAGRWLHHAGSRAGSSGLLRNRGPGGSAEASRSLSVSARARSSSEDKITVHFINRDGETLTTKGKVGDSLLDVVVENNLIIDGFGACEGTLACSTCHLIFEDHIYEKLDAITDEENDMLDLAYGLTDRSRLGCQICLTKSMDNMTVRVPETVADARQSIDVGKTS [D99I] | 0.14 | -0.0831
MAAAGGARLLRAASAVLGGPAGRWLHHAGSRAGSSGLLRNRGPGGSAEASRSLSVSARARSSSEDKITVHFINRDGETLTTKGKVGDSLLDVVVENNLGIDGFGACEGTLACSTCHLIFEDHIYEKLDAITDEENDMLDLAYGLTDRSRLGCQICLTKSMDNMTVRVPETVADARQSIDVGKTS [D99G] | -1 | -0.777
